{"source": "patent US20110151450", "test_in_all_cases": "cleavage_in_vitro", "key": {"[1]": {"test_system": "T1, BsaWI-HF Q261A (Bacillus stearothermophilus)", "T1 sequence": "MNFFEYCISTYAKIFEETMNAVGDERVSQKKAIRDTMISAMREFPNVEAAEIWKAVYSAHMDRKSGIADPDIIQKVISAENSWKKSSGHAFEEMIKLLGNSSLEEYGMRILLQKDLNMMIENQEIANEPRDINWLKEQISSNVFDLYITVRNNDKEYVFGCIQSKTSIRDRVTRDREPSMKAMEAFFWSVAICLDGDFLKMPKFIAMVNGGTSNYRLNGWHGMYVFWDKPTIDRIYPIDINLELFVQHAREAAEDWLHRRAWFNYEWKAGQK", "conditions": "NEB4, relative activity 100%"}, "[2]": {"test_system": "T2, ApoI-HF T77A/T96A (Arthrobacter protophormiae)", "T2 sequence": "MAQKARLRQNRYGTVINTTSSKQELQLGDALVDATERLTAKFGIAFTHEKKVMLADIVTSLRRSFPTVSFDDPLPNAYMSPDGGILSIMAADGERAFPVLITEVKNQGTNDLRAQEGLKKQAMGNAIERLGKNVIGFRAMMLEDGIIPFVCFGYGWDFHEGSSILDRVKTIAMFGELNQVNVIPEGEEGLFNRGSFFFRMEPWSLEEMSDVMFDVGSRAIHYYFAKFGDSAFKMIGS", "conditions": "NEB4, relative activity 50%"}, "[3]": {"target": "T3, BglII-HF N208A (Bacillus globigii) (UniProt Q45488)", "T3 sequence": "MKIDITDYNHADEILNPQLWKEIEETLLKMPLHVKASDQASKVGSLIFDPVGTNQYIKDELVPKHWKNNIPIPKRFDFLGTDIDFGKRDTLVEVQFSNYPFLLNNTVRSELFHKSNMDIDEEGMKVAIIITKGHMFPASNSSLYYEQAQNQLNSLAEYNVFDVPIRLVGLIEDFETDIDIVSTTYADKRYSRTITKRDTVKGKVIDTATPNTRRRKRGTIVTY", "conditions": "NEB4, relative activity 25%"}, "[4]": {"test_system": "T4, SpeI-WT (Sphaerotilus natans)", "T4 sequence": "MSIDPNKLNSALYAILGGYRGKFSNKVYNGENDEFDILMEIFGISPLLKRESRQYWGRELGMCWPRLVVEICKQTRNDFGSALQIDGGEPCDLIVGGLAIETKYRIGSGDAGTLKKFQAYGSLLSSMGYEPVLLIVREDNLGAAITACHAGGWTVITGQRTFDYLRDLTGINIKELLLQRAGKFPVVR", "conditions": "NEB4, relative activity 50%"}, "[5]": {"test_system": "T5, PmeI-HF E86A (Pseudomonas mendocina)", "T5 sequence": "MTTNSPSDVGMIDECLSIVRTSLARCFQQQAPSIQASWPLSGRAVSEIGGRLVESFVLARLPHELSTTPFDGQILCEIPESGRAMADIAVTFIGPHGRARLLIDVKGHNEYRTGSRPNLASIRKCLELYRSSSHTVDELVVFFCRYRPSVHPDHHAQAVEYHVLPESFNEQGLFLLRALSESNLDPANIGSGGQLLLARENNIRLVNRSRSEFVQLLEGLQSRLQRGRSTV", "conditions": "NEB4, relative activity 100%"}, "[6]": {"test_system": "T6, PvuI-HF P154A (Proteus vulgaris)", "T6 sequence": "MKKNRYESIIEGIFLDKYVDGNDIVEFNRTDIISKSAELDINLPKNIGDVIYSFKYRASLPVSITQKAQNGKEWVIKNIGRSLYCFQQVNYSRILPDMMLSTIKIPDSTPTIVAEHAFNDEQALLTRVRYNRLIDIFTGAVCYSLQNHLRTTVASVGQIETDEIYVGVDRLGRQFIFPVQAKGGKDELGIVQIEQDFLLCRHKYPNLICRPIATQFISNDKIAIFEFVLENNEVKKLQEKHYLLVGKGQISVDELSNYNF", "conditions": "NEB4, relative activity 100%"}, "[7]": {"target": "T7, SmaI-WT (Serratia marcescens) (UniProt P14229)", "T7 sequence": "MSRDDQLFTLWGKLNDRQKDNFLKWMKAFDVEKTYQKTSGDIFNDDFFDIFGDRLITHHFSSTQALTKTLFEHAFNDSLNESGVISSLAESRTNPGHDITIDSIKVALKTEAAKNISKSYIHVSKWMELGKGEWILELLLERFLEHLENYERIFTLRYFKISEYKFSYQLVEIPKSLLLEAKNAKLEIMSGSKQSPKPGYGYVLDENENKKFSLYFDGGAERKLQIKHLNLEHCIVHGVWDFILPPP", "conditions": "NEB4, relative activity 100%"}, "[8]": {"test_system": "T8, BsaWI-WT (Bacillus stearothermophilus)", "T8 sequence": "T1 sequence with A261Q", "conditions": "NEB4, relative activity 100%"}}, "note": "Where a chain is given by its changes, count along the chain named.", "data": [{"substance": "pXba plasmid", "values": [{"measurement": "activity (fidelity index)", "setting": "[1]", "value": "> 4000"}, {"measurement": "activity (fidelity index)", "setting": "[2]", "value": "> 2000"}, {"measurement": "activity (fidelity index)", "setting": "[3]", "value": "> 32000"}, {"measurement": "activity (fidelity index)", "setting": "[4]", "value": 500}, {"measurement": "activity (fidelity index)", "setting": "[5]", "value": "> 8000"}, {"measurement": "activity (fidelity index)", "setting": "[6]", "value": "> 16000"}, {"measurement": "activity (fidelity index)", "setting": "[7]", "value": 64}, {"measurement": "activity (fidelity index)", "setting": "[8]", "value": 16}]}]}
